Test results taken from article PMC2270844, “Functional role of the additional domains in inulosucrase (IslA) from Leuconostoc citreum CW28” (BMC Biochemistry, 2008).

Substrate: OC[C@H]1O[C@@](CO)(O[C@H]2O[C@H](CO)[C@@H](O)[C@H](O)[C@H]2O)[C@@H](O)[C@@H]1O
Test: initial sucrose consumption rate, reducing sugar (DNS) assay, Michaelis-Menten fit
Format: biochemical, Leuconostoc citreum
Conditions: pH 6.5 phosphate 50 mM, 30°C, 1 mM CaCl2, total Km (hydrolysis plus transglycosylation)
Source text: initial sucrose consumption rate, reducing sugar (DNS) assay, Michaelis-Menten fit on IslA2

B1: IslA2 (Leuconostoc citreum) (protein)
chain: DVNQPLLAQENFSGNKTEPVPDKSNKNESVKDSKVATSDELAKDSKVATSDELAKDSKVATSDELAKDSKVATSDELVKDSKVATSDELAKDSKVATSDELAKDSKVATSDELAKDSKVATSDELAKDSKVATSDELAKDSKAPTNDVSVRAEKKSSLIDSPELNVKMSEMTSVPNLISDENSKNLVNSNELINGLSKRSLEIAHQAGIDVSRLNDIQKAALNKIKLVNEDGNKYVLDNTGSDYTKNTIIDKNNPDDTTKTTHITFANLDDAIKLAQKPDPKTTIPVFNASQINNLPASIFKDAQTNKVEKMDVWDSWALQDSKTGEVYNYHGKQVVFALMGAPLVQGDTHIYMLYNNYNNAKLDGWVNAGPVFGYNAKPESQEWSGSAVVNSDDSIQLFYTRVADDWKQALATVNIKITNSENSLGIQSLQNDHILFEGDGYFYSRKDQLKPQADMFTLRDPKLIELDDGERYLTFEANTGIYDEASDQQTVNLNNYGGGLTYDVARMLGVVNNSNRALYSSTANGAIGLLKLKGDYFNPILDRLYKPLITAVGVTDEIERANIVPFNGKYYLFTDSRFNRSAADNSPMSMAPDGAMMMGFVSDSLFGDYKPLNGNGIVLVTNNSFTSRTNTYSWYTVPVKGRPDLMLVTSYMTNRGLASGTDQYSTFAPSFLLKIDGDQTHVLNTVTEQGDWVWGDDDHSIVELLALNTEDAYLTNNQKNINYSPDWSNIDGYGYPIVTNIKDVDLTFYISGILSPDSLFKNAPGRHQGARIIGSTSQYNTEKVSAIKEYTDDLNTIWYLVNLAGNNFWIKGSSLVTVPMTDSTFRNAYIVKDSDMYLDAPQGETNAKYYQSSNSYNDAYVIVGGEYKDAHGITWNLIKLNDKILWINKNSLAISFSRDLN
notes: C-terminal truncation, last 551 residues deleted; variable region, catalytic domain and transition region kept; 102 kDa plus 16 kDa N-terminal thioredoxin fusion, His tag; E. coli TOP10, pBAD/Thio TOPO, Ni-NTA
- Km: 24 mM
- kcat: 28.2 s⁻¹
- kcat/Km: 1170 M⁻¹ s⁻¹
